Measured values as given in patent US20240383984A1 (Genentech, published 2024).

T1: human FcRH5 protein fragment (soluble) (human, UniProt Q96RD9 16-851)
T1 construct: whole entry named; also called soluble human FcRH5; Human FcRH5 (BIACORE analyte)
T1 sequence: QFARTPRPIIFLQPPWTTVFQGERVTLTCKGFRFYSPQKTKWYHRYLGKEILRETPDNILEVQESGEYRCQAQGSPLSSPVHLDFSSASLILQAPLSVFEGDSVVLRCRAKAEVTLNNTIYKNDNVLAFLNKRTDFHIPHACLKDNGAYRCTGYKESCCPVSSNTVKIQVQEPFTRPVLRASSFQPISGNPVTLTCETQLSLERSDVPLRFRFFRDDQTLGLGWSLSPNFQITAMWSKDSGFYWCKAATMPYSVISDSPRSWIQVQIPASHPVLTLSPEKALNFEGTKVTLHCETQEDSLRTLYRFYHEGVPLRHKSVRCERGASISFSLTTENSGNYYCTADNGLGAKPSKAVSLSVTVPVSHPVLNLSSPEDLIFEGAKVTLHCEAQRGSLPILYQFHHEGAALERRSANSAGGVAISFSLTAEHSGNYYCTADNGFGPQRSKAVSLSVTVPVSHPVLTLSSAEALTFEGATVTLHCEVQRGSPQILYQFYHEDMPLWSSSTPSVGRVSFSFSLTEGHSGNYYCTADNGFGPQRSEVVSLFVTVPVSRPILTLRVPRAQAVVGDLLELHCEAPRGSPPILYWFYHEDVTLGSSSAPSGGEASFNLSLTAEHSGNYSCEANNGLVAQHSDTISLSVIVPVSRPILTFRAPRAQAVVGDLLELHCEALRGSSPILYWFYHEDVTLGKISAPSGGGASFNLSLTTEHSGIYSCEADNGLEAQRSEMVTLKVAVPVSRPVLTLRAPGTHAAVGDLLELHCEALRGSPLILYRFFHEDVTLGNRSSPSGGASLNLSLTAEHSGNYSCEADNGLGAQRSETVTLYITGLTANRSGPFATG


Columns and labels:
[1] = target: T1, human FcRH5 protein fragment (soluble); assay: SPR, hIgG capture, screening
Protocol: (§1) Briefly, a human IgG capture surface was generated on a Series S CM5 chip using amine coupling and the human IgG capture kit (GE Life Sciences, Piscataway, NJ). Test antibodies were then captured on flow cells 2, 3, or 4, with flow cell 1 used as a reference. An FcRH5 protein fragment was used as the analyte, with a flow rate of […]. Between injections the capture surface was regenerated by a 30-second injection of 3M magnesium chloride or 10 mM glycine, pH 1.5. Interactions were assessed at 25° C. in 10 mM HEPES pH7.4, 150 mM NaCl, and 0.05% Tween 20 (HBSP). Reference data from the reference flow cell and from injection of buffer alone were subtracted prior to kinetic analysis. Kinetic information was calculated by fitting data to a 1:1 binding model. Reference subtraction and data fitting were performed using BIAevaluation software (GE Life Sciences, Piscataway, NJ).
(§2) For affinity screening of HVR-H2 Trp52 and Met64 variants (Table 7), antibodies were expressed by transient transfection of Expi293 cells and purified using tip columns that were custom packed with affinity resin MabSelect SuRe (Glygen Corp., Columbia, MD & GE Life Sciences, Piscataway, NJ). […] Binding of FcRH5 protein fragment to captured antibodies was monitored at 100 nM and 500 nM. Association and dissociation were monitored at a flow rate of 40 μl/min, for 180 s and 300 s, respectively.

[2] = target: T1, human FcRH5 protein fragment (soluble); assay: SPR (BIACORE), IgG captured via anti-human IgG, FcRH5 protein fragment as analyte (100 and 500 nM)
Protocol: as §1, §2

| Binder | Kd [1] | Kd [2] |
| --- | --- | --- |
| hu1G7.v1 heavy chain M64L with light chain of hu1G7.v1.6 (antibody, V domains shown, human IgG) VH: EVQLVESGPGLVKPSETLSLTCTVSGFSLTRFGVHWVRQPPGKGLEWLGVIWRGGSTDYNAAFLSRLTISKDNSKNQVSLKLSSVTAADTAVYYCSNHYYGSSDYALDNWGQGTLVTVSS VL: DIQMTQSPSSLSASVGDRVTITCKASQDVSNIVVWFQQKPGKAPKLLIYSGYYRYSGVPSRFSGSGSGTDFTLTISSLQPEDFATYYCQQQYQPPYTFGQGTKVEIK | 2.6 nM | 2.6 nM |
| hu1G7.v1 heavy chain M64V with light chain of hu1G7.v1.5 (antibody, V domains shown, human IgG) VH: EVQLVESGPGLVKPSETLSLTCTVSGFSLTRFGVHWVRQPPGKGLEWLGVIWRGGSTDYNAAFVSRLTISKDNSKNQVSLKLSSVTAADTAVYYCSNHYYGSSDYALDNWGQGTLVTVSS VL: DIQMTQSPSSLSASVGDRVTITCKASQDVSNIVVWFQQKPGKSPKLLIYSGYYRYTGVPSRFSGSGSGTDFTLTISSLQPEDFATYYCQQQFQPPYTFGQGTKVEIK | 2.5 nM | 2.5 nM |
| hu1G7.v1 heavy chain W52F with light chain of hu1G7.v1.4 (antibody, V domains shown, human IgG) VH: EVQLVESGPGLVKPSETLSLTCTVSGFSLTRFGVHWVRQPPGKGLEWLGVIFRGGSTDYNAAFMSRLTISKDNSKNQVSLKLSSVTAADTAVYYCSNHYYGSSDYALDNWGQGTLVTVSS VL: DIQMTQSPSSLSASVGDRVTITCKASQDVRNLVVWFQQKPGKAPKLLIYSGSYRYSGVPSRFSGSGSGTDFTLTISSLQPEDFATYYCQQHYSPPYTFGQGTKVEIK | 120 nM | 119 nM |
| hu1G7.v1 heavy chain M64V with light chain of hu1G7.v1.3 (antibody, V domains shown, human IgG) VH: EVQLVESGPGLVKPSETLSLTCTVSGFSLTRFGVHWVRQPPGKGLEWLGVIWRGGSTDYNAAFVSRLTISKDNSKNQVSLKLSSVTAADTAVYYCSNHYYGSSDYALDNWGQGTLVTVSS VL: DIQMTQSPSSLSASVGDRVTITCKASQDVRNIVVWFQQKPGKAPKLLIYSGSYRYSGVPSRFSGSGSGTDFTLTISSLQPEDFATYYCQQQYSPPYTFGQGTKVEIK | 2.5 nM | 2.5 nM |
| hu1G7.v1 heavy chain M64V with light chain of hu1G7.v1.7 (antibody, V domains shown, human IgG) VH: EVQLVESGPGLVKPSETLSLTCTVSGFSLTRFGVHWVRQPPGKGLEWLGVIWRGGSTDYNAAFVSRLTISKDNSKNQVSLKLSSVTAADTAVYYCSNHYYGSSDYALDNWGQGTLVTVSS VL: DIQMTQSPSSLSASVGDRVTITCKASQDVRNLVVWFQQKPGKAPKLLIYSGYYRYTGVPSRFSGSGSGTDFTLTISSLQPEDFATYYCQQHYQPPYTFGQGTKVEIK | 2.5 nM | 2.5 nM |
| hu1G7.v1 heavy chain M64V with light chain of hu1G7.v1.6 (antibody, V domains shown, human IgG) VH: EVQLVESGPGLVKPSETLSLTCTVSGFSLTRFGVHWVRQPPGKGLEWLGVIWRGGSTDYNAAFVSRLTISKDNSKNQVSLKLSSVTAADTAVYYCSNHYYGSSDYALDNWGQGTLVTVSS VL: DIQMTQSPSSLSASVGDRVTITCKASQDVSNIVVWFQQKPGKAPKLLIYSGYYRYSGVPSRFSGSGSGTDFTLTISSLQPEDFATYYCQQQYQPPYTFGQGTKVEIK | 2.7 nM | 2.7 nM |
| hu1G7.v1 heavy chain W52F with light chain of hu1G7.v1.5 (antibody, V domains shown, human IgG) VH: EVQLVESGPGLVKPSETLSLTCTVSGFSLTRFGVHWVRQPPGKGLEWLGVIFRGGSTDYNAAFMSRLTISKDNSKNQVSLKLSSVTAADTAVYYCSNHYYGSSDYALDNWGQGTLVTVSS VL: DIQMTQSPSSLSASVGDRVTITCKASQDVSNIVVWFQQKPGKSPKLLIYSGYYRYTGVPSRFSGSGSGTDFTLTISSLQPEDFATYYCQQQFQPPYTFGQGTKVEIK | 48 nM | 47.5 nM |
| hu1G7.v1 heavy chain W52F with light chain of hu1G7.v1.3 (antibody, V domains shown, human IgG) VH: EVQLVESGPGLVKPSETLSLTCTVSGFSLTRFGVHWVRQPPGKGLEWLGVIFRGGSTDYNAAFMSRLTISKDNSKNQVSLKLSSVTAADTAVYYCSNHYYGSSDYALDNWGQGTLVTVSS VL: DIQMTQSPSSLSASVGDRVTITCKASQDVRNIVVWFQQKPGKAPKLLIYSGSYRYSGVPSRFSGSGSGTDFTLTISSLQPEDFATYYCQQQYSPPYTFGQGTKVEIK | 180 nM | 177 nM |
| hu1G7.v1 heavy chain W52F with light chain of hu1G7.v1.6 (antibody, V domains shown, human IgG) VH: EVQLVESGPGLVKPSETLSLTCTVSGFSLTRFGVHWVRQPPGKGLEWLGVIFRGGSTDYNAAFMSRLTISKDNSKNQVSLKLSSVTAADTAVYYCSNHYYGSSDYALDNWGQGTLVTVSS VL: DIQMTQSPSSLSASVGDRVTITCKASQDVSNIVVWFQQKPGKAPKLLIYSGYYRYSGVPSRFSGSGSGTDFTLTISSLQPEDFATYYCQQQYQPPYTFGQGTKVEIK | 81 nM | 81.4 nM |
| hu1G7.v1 heavy chain W52F with light chain of hu1G7.v1 (antibody, V domains shown, human IgG) VH: EVQLVESGPGLVKPSETLSLTCTVSGFSLTRFGVHWVRQPPGKGLEWLGVIFRGGSTDYNAAFMSRLTISKDNSKNQVSLKLSSVTAADTAVYYCSNHYYGSSDYALDNWGQGTLVTVSS VL: DIQMTQSPSSLSASVGDRVTITCKASQDVSNIVVWFQQKPGKSPKLLIYSASYRYTGVPSRFSGSGSGTDFTLTISSLQPEDFATYYCQQHYSSPYTFGQGTKVEIK | 250 nM | 254 nM |

Next, values leading:

| Kd [1] | Kd [2] | Binder |
| --- | --- | --- |
| 110 nM | 109 nM | hu1G7.v1 heavy chain W52H with light chain of hu1G7.v1.6 (antibody, V domains shown, human IgG) VH: EVQLVESGPGLVKPSETLSLTCTVSGFSLTRFGVHWVRQPPGKGLEWLGVIHRGGSTDYNAAFMSRLTISKDNSKNQVSLKLSSVTAADTAVYYCSNHYYGSSDYALDNWGQGTLVTVSS VL: DIQMTQSPSSLSASVGDRVTITCKASQDVSNIVVWFQQKPGKAPKLLIYSGYYRYSGVPSRFSGSGSGTDFTLTISSLQPEDFATYYCQQQYQPPYTFGQGTKVEIK |
| 120 nM | 120 nM | hu1G7.v1 heavy chain W52H with light chain of hu1G7.v1 (antibody, V domains shown, human IgG) VH: EVQLVESGPGLVKPSETLSLTCTVSGFSLTRFGVHWVRQPPGKGLEWLGVIHRGGSTDYNAAFMSRLTISKDNSKNQVSLKLSSVTAADTAVYYCSNHYYGSSDYALDNWGQGTLVTVSS VL: DIQMTQSPSSLSASVGDRVTITCKASQDVSNIVVWFQQKPGKSPKLLIYSASYRYTGVPSRFSGSGSGTDFTLTISSLQPEDFATYYCQQHYSSPYTFGQGTKVEIK |
| 66 nM | 65.5 nM | hu1G7.v1 heavy chain W52H with light chain of hu1G7.v1.3 (antibody, V domains shown, human IgG) VH: EVQLVESGPGLVKPSETLSLTCTVSGFSLTRFGVHWVRQPPGKGLEWLGVIHRGGSTDYNAAFMSRLTISKDNSKNQVSLKLSSVTAADTAVYYCSNHYYGSSDYALDNWGQGTLVTVSS VL: DIQMTQSPSSLSASVGDRVTITCKASQDVRNIVVWFQQKPGKAPKLLIYSGSYRYSGVPSRFSGSGSGTDFTLTISSLQPEDFATYYCQQQYSPPYTFGQGTKVEIK |
| 67 nM | 67.3 nM | hu1G7.v1 heavy chain W52H with light chain of hu1G7.v1.5 (antibody, V domains shown, human IgG) VH: EVQLVESGPGLVKPSETLSLTCTVSGFSLTRFGVHWVRQPPGKGLEWLGVIHRGGSTDYNAAFMSRLTISKDNSKNQVSLKLSSVTAADTAVYYCSNHYYGSSDYALDNWGQGTLVTVSS VL: DIQMTQSPSSLSASVGDRVTITCKASQDVSNIVVWFQQKPGKSPKLLIYSGYYRYTGVPSRFSGSGSGTDFTLTISSLQPEDFATYYCQQQFQPPYTFGQGTKVEIK |
| 60 nM | 60.4 nM | hu1G7.v1 heavy chain W52H with light chain of hu1G7.v1.4 (antibody, V domains shown, human IgG) VH: EVQLVESGPGLVKPSETLSLTCTVSGFSLTRFGVHWVRQPPGKGLEWLGVIHRGGSTDYNAAFMSRLTISKDNSKNQVSLKLSSVTAADTAVYYCSNHYYGSSDYALDNWGQGTLVTVSS VL: DIQMTQSPSSLSASVGDRVTITCKASQDVRNLVVWFQQKPGKAPKLLIYSGSYRYSGVPSRFSGSGSGTDFTLTISSLQPEDFATYYCQQHYSPPYTFGQGTKVEIK |
| 77 nM | 76.6 nM | hu1G7.v1 heavy chain W52F with light chain of hu1G7.v1.7 (antibody, V domains shown, human IgG) VH: EVQLVESGPGLVKPSETLSLTCTVSGFSLTRFGVHWVRQPPGKGLEWLGVIFRGGSTDYNAAFMSRLTISKDNSKNQVSLKLSSVTAADTAVYYCSNHYYGSSDYALDNWGQGTLVTVSS VL: DIQMTQSPSSLSASVGDRVTITCKASQDVRNLVVWFQQKPGKAPKLLIYSGYYRYTGVPSRFSGSGSGTDFTLTISSLQPEDFATYYCQQHYQPPYTFGQGTKVEIK |
